Experiments:
[1] = biological target: T1, B7H3 on B7H3-positive human melanoma A375 cells (human, UniProt Q5ZPR3 29-534); experiment: flow cytometry on B7H3-positive A375 cells, MFI
T1 construct: whole, on cells; Endogenous B7H3 on A375 cells; also called B7H3-positive A375 cells
T1 sequence (looked up): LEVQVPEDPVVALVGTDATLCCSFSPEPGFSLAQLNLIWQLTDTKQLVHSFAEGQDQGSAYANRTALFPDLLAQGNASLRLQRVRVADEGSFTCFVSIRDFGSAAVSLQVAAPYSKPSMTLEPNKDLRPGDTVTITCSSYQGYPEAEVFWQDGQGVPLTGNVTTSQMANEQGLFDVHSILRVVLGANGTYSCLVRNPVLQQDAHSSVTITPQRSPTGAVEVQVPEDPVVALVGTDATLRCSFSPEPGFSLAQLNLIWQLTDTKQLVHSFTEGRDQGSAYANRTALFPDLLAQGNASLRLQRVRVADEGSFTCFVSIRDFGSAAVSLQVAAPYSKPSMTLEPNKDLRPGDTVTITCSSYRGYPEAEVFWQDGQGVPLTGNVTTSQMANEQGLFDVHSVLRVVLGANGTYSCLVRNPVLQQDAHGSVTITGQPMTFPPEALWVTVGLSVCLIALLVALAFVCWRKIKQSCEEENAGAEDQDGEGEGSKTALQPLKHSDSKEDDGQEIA

[2] = biological target: T2, His-tagged human B7H3 protein (purchased from Beijing ACROBiosystems Co., Ltd.) (human, UniProt Q5ZPR3-2 29-245, limits assumed); experiment: ELISA, His-tagged human B7H3 coated on plate, anti-human IgG-HRP
T2 construct: not shown: His tag
T2 sequence (looked up): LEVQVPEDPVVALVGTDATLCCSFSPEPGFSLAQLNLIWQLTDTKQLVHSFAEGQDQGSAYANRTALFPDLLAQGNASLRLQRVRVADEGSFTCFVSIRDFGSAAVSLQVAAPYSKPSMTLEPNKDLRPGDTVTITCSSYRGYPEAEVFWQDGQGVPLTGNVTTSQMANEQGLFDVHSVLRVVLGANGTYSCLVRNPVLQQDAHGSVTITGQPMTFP

B1: antibody-drug conjugate 43B-045-6 (antibody, human IgG1, kappa, L234A L235A)
heavy: QVQLVQSGAEVKKPGASVKVSCKASGYTFTDYFMNWVRQAPGQGLEWMGDVNPKTGSPSYNQKFKGRVTMTRDTSTSTVYMELSSLRSEDTAVYYCARRYGFLYSMDYWGQGTSVTVSSASTKGPSVFPLAPSSKSTSGGTAALGCLVKDYFPEPVTVSWNSGALTSGVHTFPAVLQSSGLYSLSSVVTVPSSSLGTQTYICNVNHKPSNTKVDKRVEPKSCDKTHTSPPCPAPEAAGGPSVFLFPPKPKDTLMISRTPEVTCVVVDVSHEDPEVKFNWYVDGVEVHNAKTKPREEQYNSTYRVVSVLTVLHQDWLNGKEYKCKVSNKALAASIEKTISKAKGQPREPQVYTLPPSREEMTKNQVSLTCLVKGFYPSDIAVEWESNGQPENNYKTTPPVLDSDGSFFLYSKLTVDKSRWQQGNVFSCSVMHEALHNHYTQKSLSLSPGK
light: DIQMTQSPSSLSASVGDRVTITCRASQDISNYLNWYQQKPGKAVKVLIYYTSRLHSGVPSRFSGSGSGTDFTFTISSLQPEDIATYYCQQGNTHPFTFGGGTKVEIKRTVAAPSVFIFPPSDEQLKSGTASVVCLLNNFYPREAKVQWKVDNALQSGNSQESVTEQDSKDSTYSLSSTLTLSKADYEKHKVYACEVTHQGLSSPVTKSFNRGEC
modifications: linker-drug compound 045 (exatecan) on thiols of reduced interchain cysteines; DAR of the whole conjugate 5.7
For B1, the EC50 [1] was 37.8 ng/mL.

B2: anti-B7H3 antibody 43A (antibody, human IgG1, kappa, L234A L235A)
heavy: QVQLVQSGAEVKKPGASVKVSCKASGYTFTDYFMNWVRQAPGQGLEWMGDVNPKTGSPSYNQKFKGRVTMTRDTSTSTVYMELSSLRSEDTAVYYCARRYGFLYSMDYWGQGTSVTVSSASTKGPSVFPLAPSSKSTSGGTAALGCLVKDYFPEPVTVSWNSGALTSGVHTFPAVLQSSGLYSLSSVVTVPSSSLGTQTYICNVNHKPSNTKVDKRVEPKSCDKTHTCPPCPAPEAAGGPSVFLFPPKPKDTLMISRTPEVTCVVVDVSHEDPEVKFNWYVDGVEVHNAKTKPREEQYNSTYRVVSVLTVLHQDWLNGKEYKCKVSNKALAASIEKTISKAKGQPREPQVYTLPPSREEMTKNQVSLTCLVKGFYPSDIAVEWESNGQPENNYKTTPPVLDSDGSFFLYSKLTVDKSRWQQGNVFSCSVMHEALHNHYTQKSLSLSPGK
light: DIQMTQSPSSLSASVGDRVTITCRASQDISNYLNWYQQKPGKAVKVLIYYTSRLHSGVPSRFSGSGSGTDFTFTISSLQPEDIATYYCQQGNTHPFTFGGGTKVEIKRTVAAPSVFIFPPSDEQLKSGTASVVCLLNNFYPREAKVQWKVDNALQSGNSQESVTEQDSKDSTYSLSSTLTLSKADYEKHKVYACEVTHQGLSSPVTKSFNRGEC
notes: 2 identical heavy chains and 2 identical light chains
In the case of B2, the EC50 [2] is reported as 1.02 ng/mL and the EC50 [1] is reported as 54.5 ng/mL.

B3: anti-B7H3 antibody 43B (antibody, human IgG1, kappa, L234A L235A)
heavy: QVQLVQSGAEVKKPGASVKVSCKASGYTFTDYFMNWVRQAPGQGLEWMGDVNPKTGSPSYNQKFKGRVTMTRDTSTSTVYMELSSLRSEDTAVYYCARRYGFLYSMDYWGQGTSVTVSSASTKGPSVFPLAPSSKSTSGGTAALGCLVKDYFPEPVTVSWNSGALTSGVHTFPAVLQSSGLYSLSSVVTVPSSSLGTQTYICNVNHKPSNTKVDKRVEPKSCDKTHTSPPCPAPEAAGGPSVFLFPPKPKDTLMISRTPEVTCVVVDVSHEDPEVKFNWYVDGVEVHNAKTKPREEQYNSTYRVVSVLTVLHQDWLNGKEYKCKVSNKALAASIEKTISKAKGQPREPQVYTLPPSREEMTKNQVSLTCLVKGFYPSDIAVEWESNGQPENNYKTTPPVLDSDGSFFLYSKLTVDKSRWQQGNVFSCSVMHEALHNHYTQKSLSLSPGK
light: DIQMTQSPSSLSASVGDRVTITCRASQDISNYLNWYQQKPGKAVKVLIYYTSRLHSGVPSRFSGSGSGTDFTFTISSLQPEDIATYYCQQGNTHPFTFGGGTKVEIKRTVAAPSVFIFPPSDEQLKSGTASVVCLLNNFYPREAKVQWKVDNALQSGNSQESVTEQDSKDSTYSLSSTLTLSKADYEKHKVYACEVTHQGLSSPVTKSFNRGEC
notes: as for B2
Work on B3 yielded an EC50 [2] of 1.05 ng/mL and an EC50 [1] of 61.2 ng/mL.

B4: antibody-drug conjugate 43B-042 (antibody, human IgG1, kappa, L234A L235A)
heavy: QVQLVQSGAEVKKPGASVKVSCKASGYTFTDYFMNWVRQAPGQGLEWMGDVNPKTGSPSYNQKFKGRVTMTRDTSTSTVYMELSSLRSEDTAVYYCARRYGFLYSMDYWGQGTSVTVSSASTKGPSVFPLAPSSKSTSGGTAALGCLVKDYFPEPVTVSWNSGALTSGVHTFPAVLQSSGLYSLSSVVTVPSSSLGTQTYICNVNHKPSNTKVDKRVEPKSCDKTHTSPPCPAPEAAGGPSVFLFPPKPKDTLMISRTPEVTCVVVDVSHEDPEVKFNWYVDGVEVHNAKTKPREEQYNSTYRVVSVLTVLHQDWLNGKEYKCKVSNKALAASIEKTISKAKGQPREPQVYTLPPSREEMTKNQVSLTCLVKGFYPSDIAVEWESNGQPENNYKTTPPVLDSDGSFFLYSKLTVDKSRWQQGNVFSCSVMHEALHNHYTQKSLSLSPGK
light: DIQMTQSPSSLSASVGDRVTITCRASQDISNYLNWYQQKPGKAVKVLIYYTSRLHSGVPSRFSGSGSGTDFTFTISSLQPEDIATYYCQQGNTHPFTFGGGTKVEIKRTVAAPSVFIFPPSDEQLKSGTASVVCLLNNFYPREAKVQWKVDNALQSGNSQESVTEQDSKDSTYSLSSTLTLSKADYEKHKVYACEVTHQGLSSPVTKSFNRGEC
modifications: linker-drug compound A_10 (exatecan) on thiols of reduced interchain cysteines; DAR of the whole conjugate 5.9
Work on B4 yielded an EC50 [2] of 1.16 ng/mL.

B5: antibody-drug conjugate 43B-043 (antibody, human IgG1, kappa, L234A L235A)
heavy: QVQLVQSGAEVKKPGASVKVSCKASGYTFTDYFMNWVRQAPGQGLEWMGDVNPKTGSPSYNQKFKGRVTMTRDTSTSTVYMELSSLRSEDTAVYYCARRYGFLYSMDYWGQGTSVTVSSASTKGPSVFPLAPSSKSTSGGTAALGCLVKDYFPEPVTVSWNSGALTSGVHTFPAVLQSSGLYSLSSVVTVPSSSLGTQTYICNVNHKPSNTKVDKRVEPKSCDKTHTSPPCPAPEAAGGPSVFLFPPKPKDTLMISRTPEVTCVVVDVSHEDPEVKFNWYVDGVEVHNAKTKPREEQYNSTYRVVSVLTVLHQDWLNGKEYKCKVSNKALAASIEKTISKAKGQPREPQVYTLPPSREEMTKNQVSLTCLVKGFYPSDIAVEWESNGQPENNYKTTPPVLDSDGSFFLYSKLTVDKSRWQQGNVFSCSVMHEALHNHYTQKSLSLSPGK
light: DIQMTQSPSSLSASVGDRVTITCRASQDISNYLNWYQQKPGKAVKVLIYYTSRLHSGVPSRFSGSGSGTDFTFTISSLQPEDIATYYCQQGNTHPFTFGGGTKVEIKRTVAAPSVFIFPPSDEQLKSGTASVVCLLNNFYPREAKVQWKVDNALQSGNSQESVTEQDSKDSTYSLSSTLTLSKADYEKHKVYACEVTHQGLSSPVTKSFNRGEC
modifications: linker-drug compound B_3 (exatecan) on thiols of reduced interchain cysteines; DAR of the whole conjugate 5.9
In the case of B5, the EC50 [2] is reported as 1.05 ng/mL.

B6: antibody-drug conjugate 43A-DXd (antibody, human IgG1, kappa, L234A L235A)
heavy: QVQLVQSGAEVKKPGASVKVSCKASGYTFTDYFMNWVRQAPGQGLEWMGDVNPKTGSPSYNQKFKGRVTMTRDTSTSTVYMELSSLRSEDTAVYYCARRYGFLYSMDYWGQGTSVTVSSASTKGPSVFPLAPSSKSTSGGTAALGCLVKDYFPEPVTVSWNSGALTSGVHTFPAVLQSSGLYSLSSVVTVPSSSLGTQTYICNVNHKPSNTKVDKRVEPKSCDKTHTCPPCPAPEAAGGPSVFLFPPKPKDTLMISRTPEVTCVVVDVSHEDPEVKFNWYVDGVEVHNAKTKPREEQYNSTYRVVSVLTVLHQDWLNGKEYKCKVSNKALAASIEKTISKAKGQPREPQVYTLPPSREEMTKNQVSLTCLVKGFYPSDIAVEWESNGQPENNYKTTPPVLDSDGSFFLYSKLTVDKSRWQQGNVFSCSVMHEALHNHYTQKSLSLSPGK
light: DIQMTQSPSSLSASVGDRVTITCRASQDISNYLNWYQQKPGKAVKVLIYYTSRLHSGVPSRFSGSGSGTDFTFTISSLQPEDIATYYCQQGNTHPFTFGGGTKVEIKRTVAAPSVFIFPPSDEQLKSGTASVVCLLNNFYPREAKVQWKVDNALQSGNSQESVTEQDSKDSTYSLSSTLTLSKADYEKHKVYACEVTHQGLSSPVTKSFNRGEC
modifications: deruxtecan linker-drug on thiols of reduced interchain cysteines; DAR of the whole conjugate 7.4
Work on B6 yielded an EC50 [2] of 1.19 ng/mL.

B7: antibody-drug conjugate 43A-042 (antibody, human IgG1, kappa, L234A L235A)
heavy: QVQLVQSGAEVKKPGASVKVSCKASGYTFTDYFMNWVRQAPGQGLEWMGDVNPKTGSPSYNQKFKGRVTMTRDTSTSTVYMELSSLRSEDTAVYYCARRYGFLYSMDYWGQGTSVTVSSASTKGPSVFPLAPSSKSTSGGTAALGCLVKDYFPEPVTVSWNSGALTSGVHTFPAVLQSSGLYSLSSVVTVPSSSLGTQTYICNVNHKPSNTKVDKRVEPKSCDKTHTCPPCPAPEAAGGPSVFLFPPKPKDTLMISRTPEVTCVVVDVSHEDPEVKFNWYVDGVEVHNAKTKPREEQYNSTYRVVSVLTVLHQDWLNGKEYKCKVSNKALAASIEKTISKAKGQPREPQVYTLPPSREEMTKNQVSLTCLVKGFYPSDIAVEWESNGQPENNYKTTPPVLDSDGSFFLYSKLTVDKSRWQQGNVFSCSVMHEALHNHYTQKSLSLSPGK
light: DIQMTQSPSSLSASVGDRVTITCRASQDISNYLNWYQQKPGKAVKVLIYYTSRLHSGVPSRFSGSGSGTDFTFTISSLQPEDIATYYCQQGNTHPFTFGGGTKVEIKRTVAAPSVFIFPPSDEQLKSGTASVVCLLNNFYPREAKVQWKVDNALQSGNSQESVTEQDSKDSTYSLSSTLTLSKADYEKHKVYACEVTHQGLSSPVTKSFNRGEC
modifications: linker-drug compound A_10 (exatecan) on thiols of reduced interchain cysteines; DAR of the whole conjugate 7.6
B7 gave an EC50 [2] of 1.17 ng/mL.

B8: antibody-drug conjugate 43A-043 (antibody, human IgG1, kappa, L234A L235A)
heavy: QVQLVQSGAEVKKPGASVKVSCKASGYTFTDYFMNWVRQAPGQGLEWMGDVNPKTGSPSYNQKFKGRVTMTRDTSTSTVYMELSSLRSEDTAVYYCARRYGFLYSMDYWGQGTSVTVSSASTKGPSVFPLAPSSKSTSGGTAALGCLVKDYFPEPVTVSWNSGALTSGVHTFPAVLQSSGLYSLSSVVTVPSSSLGTQTYICNVNHKPSNTKVDKRVEPKSCDKTHTCPPCPAPEAAGGPSVFLFPPKPKDTLMISRTPEVTCVVVDVSHEDPEVKFNWYVDGVEVHNAKTKPREEQYNSTYRVVSVLTVLHQDWLNGKEYKCKVSNKALAASIEKTISKAKGQPREPQVYTLPPSREEMTKNQVSLTCLVKGFYPSDIAVEWESNGQPENNYKTTPPVLDSDGSFFLYSKLTVDKSRWQQGNVFSCSVMHEALHNHYTQKSLSLSPGK
light: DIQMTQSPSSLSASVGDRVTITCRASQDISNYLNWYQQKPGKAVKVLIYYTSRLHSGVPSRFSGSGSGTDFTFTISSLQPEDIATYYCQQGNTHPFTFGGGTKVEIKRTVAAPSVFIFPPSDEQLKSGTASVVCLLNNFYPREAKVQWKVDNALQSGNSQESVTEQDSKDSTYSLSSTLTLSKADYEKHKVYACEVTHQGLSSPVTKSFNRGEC
modifications: linker-drug compound B_3 (exatecan) on thiols of reduced interchain cysteines; DAR of the whole conjugate 7.8
Work on B8 yielded an EC50 [2] of 1.09 ng/mL.

B9: M30 antibody (CN103687945B) (antibody, human IgG1, kappa, V domains shown)
VH: QVQLVQSGAEVKKPGSSVKVSCKASGYTFTNYVMHWVRQAPGQGLEWMGYINPYNDDVKYNEKFKGRVTITADESTSTAYMELSSLRSEDTAVYYCARWGYYGSPLYYFDYWGQGTLVTVSS
VL: EIVLTQSPATLSLSPGERATLSCRASSRLIYMHWYQQKPGQAPRPLIYATSNLASGIPARFSGSGSGTDFTLTISSLEPEDFAVYYCQQWNSNPPTFGQGTKVEIKR
notes: also called M30-H1/M30-L4
B9 gave an EC50 [1] of 125 ng/mL.

Source: patent publication EP4736885A1 (CSPC Megalith Biopharmaceutical Co., Ltd., dated 2025)
